Like-named read-outs stand apart in the source and are kept apart here.
Experiments:
Test in all cases: Kinase selectivity panel
Format in all cases: biochemical
PIM2 = PIM2 (Homo sapiens, UniProt Q9P1W9); conditions: read-out: residual activity (%) PIM2
Procedure: (§1) The panel of kinases included all 52 kinases available for testing.
(§2) The assay of protein kinases was performed at 30° C. as described previously [Davies et al., Biochem. J. 351 (2000) 95; Murray et al., Biochem. J. 384 (2004) 477].

PLK1 = PLK1 (Homo sapiens, UniProt P53350); conditions: read-out: residual activity (%) PLK1
Procedure: as §1, §2

smMLCK = smMLCK (Homo sapiens, UniProt Q15746); conditions: read-out: residual activity (%) smMLCK
Procedure: as §1, §2

MARK3 = MARK3 (Homo sapiens, UniProt P27448); conditions: read-out: residual activity (%) MARK3
Procedure: as §1, §2

SGK = biological target: T1, SGK (Homo sapiens, UniProt O00141); conditions: read-out: residual activity (%) SGK
T1 sequence (O00141 1-431): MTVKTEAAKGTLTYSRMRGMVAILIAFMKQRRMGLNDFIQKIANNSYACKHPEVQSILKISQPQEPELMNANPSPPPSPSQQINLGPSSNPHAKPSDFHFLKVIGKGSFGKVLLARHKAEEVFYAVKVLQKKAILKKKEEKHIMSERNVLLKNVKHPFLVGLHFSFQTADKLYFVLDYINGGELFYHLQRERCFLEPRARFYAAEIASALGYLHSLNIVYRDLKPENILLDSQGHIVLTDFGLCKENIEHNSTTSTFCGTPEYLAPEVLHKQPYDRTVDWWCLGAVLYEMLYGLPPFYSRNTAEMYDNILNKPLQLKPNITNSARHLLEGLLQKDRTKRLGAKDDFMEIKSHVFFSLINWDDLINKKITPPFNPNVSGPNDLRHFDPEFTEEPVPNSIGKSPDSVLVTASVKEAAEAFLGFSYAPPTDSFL
Procedure: as §1, §2

GSK3b = GSK3b (Homo sapiens, UniProt P49841); conditions: read-out: residual activity (%) GSK3b
Procedure: as §1, §2

CHK1 = biological target: T2, CHK1 (Homo sapiens, UniProt O14757); conditions: read-out: residual activity (%) CHK1
T2 sequence (O14757 1-476): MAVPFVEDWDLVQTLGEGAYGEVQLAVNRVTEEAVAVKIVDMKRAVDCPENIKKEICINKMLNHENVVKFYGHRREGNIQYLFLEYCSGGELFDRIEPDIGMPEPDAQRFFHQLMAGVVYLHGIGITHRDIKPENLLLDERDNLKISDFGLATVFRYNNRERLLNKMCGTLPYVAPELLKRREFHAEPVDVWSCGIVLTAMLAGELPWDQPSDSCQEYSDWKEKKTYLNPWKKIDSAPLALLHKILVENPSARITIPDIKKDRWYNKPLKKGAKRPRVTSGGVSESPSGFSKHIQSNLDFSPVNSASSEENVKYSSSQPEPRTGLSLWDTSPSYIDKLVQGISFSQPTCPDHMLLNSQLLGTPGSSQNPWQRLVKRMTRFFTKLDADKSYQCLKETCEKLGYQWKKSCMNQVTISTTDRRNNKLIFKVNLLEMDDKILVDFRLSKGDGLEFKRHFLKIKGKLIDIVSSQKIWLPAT
Procedure: as §1, §2

PRK2 = PRK2 (Homo sapiens, UniProt Q16513); conditions: read-out: residual activity (%) PRK2
Procedure: as §1, §2

ERK8 = biological target: T3, ERK8 (Homo sapiens, UniProt Q8TD08); conditions: read-out: residual activity (%) ERK8
T3 sequence (Q8TD08 1-544): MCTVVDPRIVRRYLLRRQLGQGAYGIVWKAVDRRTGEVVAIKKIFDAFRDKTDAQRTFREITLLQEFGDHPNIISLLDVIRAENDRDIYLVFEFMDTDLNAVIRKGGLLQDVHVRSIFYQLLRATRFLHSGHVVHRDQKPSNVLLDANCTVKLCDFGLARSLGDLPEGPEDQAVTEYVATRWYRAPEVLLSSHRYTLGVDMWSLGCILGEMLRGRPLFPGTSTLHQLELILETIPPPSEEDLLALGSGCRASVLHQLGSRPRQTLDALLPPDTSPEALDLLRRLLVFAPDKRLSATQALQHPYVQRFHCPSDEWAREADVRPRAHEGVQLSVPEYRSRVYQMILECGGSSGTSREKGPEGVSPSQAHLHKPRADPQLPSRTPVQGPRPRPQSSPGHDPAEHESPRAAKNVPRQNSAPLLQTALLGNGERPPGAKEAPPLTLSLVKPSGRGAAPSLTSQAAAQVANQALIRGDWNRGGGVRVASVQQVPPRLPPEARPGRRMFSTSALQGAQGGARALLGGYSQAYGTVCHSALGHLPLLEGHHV
Procedure: as §1, §2

NEK6 = NEK6 (Homo sapiens, UniProt Q9HC98); conditions: read-out: residual activity (%) NEK6
Procedure: as §1, §2

P70 S6K = P70 S6K (Homo sapiens, UniProt P23443); conditions: ATP 20 μM
Procedure: as §1, §2

MNK1 = MNK1 (Homo sapiens, UniProt Q9BUB5); conditions: read-out: residual activity (%) MNK1
Procedure: as §1, §2

CK2 = CK2 (Homo sapiens, UniProt P68400); conditions: read-out: residual activity (%) CK2
Procedure: as §1, §2

Chain of P70 S6K (P23443 whole entry): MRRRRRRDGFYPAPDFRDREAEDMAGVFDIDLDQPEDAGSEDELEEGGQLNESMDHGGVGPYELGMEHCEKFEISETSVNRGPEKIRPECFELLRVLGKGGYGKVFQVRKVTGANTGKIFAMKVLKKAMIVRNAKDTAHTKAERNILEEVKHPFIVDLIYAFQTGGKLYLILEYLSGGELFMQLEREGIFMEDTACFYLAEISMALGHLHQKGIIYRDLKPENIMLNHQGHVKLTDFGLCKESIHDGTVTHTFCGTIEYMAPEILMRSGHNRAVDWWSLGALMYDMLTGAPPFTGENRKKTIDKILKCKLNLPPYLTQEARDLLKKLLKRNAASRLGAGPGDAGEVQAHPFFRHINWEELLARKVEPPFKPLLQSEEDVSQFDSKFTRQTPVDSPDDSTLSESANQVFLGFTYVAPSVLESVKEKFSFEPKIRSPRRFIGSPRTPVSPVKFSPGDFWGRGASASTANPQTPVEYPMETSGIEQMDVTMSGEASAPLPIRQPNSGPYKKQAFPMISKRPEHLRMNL
Chain of PRK2 (Q16513 whole entry, species assumed): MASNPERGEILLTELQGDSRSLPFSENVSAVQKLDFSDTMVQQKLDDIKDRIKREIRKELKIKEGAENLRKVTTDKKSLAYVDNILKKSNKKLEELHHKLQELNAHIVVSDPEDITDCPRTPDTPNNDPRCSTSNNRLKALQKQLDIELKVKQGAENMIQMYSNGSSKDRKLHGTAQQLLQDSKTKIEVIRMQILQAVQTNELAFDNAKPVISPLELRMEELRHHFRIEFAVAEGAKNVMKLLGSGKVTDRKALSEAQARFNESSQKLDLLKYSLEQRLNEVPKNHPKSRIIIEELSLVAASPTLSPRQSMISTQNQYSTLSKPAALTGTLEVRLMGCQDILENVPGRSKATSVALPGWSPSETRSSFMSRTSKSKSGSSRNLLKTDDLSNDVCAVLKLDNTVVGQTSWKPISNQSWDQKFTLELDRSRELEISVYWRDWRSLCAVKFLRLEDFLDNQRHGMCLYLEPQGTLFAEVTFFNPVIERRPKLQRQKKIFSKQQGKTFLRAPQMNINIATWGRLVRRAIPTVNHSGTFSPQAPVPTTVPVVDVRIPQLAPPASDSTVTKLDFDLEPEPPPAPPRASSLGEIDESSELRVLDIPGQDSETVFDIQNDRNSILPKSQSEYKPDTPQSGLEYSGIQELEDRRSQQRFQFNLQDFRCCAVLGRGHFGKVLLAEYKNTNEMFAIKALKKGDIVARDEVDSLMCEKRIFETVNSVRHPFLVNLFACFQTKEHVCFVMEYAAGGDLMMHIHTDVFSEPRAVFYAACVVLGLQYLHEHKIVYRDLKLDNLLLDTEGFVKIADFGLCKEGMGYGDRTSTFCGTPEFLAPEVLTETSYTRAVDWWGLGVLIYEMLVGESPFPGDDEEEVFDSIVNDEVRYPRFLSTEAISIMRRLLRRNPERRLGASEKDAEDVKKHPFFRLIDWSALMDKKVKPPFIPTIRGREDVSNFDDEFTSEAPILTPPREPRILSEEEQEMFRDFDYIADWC
Chain of CK2 (P68400 whole entry): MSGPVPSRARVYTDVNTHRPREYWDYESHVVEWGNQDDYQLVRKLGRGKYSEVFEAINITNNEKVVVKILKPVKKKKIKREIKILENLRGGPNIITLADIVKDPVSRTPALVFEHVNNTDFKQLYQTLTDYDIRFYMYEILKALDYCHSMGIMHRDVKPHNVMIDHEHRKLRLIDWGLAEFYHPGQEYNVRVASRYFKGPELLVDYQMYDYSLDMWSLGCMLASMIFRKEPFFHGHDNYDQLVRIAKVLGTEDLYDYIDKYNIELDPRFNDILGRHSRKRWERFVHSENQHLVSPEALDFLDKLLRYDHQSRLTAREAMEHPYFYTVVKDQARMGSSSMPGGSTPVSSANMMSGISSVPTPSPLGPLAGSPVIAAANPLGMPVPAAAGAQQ
Chain of NEK6 (Q9HC98 whole entry, species assumed): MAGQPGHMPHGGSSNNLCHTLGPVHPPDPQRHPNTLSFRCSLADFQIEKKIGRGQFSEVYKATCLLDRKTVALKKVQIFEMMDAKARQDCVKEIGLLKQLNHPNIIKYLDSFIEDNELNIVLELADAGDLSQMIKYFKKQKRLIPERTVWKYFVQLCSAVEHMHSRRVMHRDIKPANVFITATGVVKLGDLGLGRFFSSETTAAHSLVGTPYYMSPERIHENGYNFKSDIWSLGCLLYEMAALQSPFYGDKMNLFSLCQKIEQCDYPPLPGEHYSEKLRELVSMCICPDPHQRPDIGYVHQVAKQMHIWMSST
Chain of GSK3b (P49841 whole entry, species assumed): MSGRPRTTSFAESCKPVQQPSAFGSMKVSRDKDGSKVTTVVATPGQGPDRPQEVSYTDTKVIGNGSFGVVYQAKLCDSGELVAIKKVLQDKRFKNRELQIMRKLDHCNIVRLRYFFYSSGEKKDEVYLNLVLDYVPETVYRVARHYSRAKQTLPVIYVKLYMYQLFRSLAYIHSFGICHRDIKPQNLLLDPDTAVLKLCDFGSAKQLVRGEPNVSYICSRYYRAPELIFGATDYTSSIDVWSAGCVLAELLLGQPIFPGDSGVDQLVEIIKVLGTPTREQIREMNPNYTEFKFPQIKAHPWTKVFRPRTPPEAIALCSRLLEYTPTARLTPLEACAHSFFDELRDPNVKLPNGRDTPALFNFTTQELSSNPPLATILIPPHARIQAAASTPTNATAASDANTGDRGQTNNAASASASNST
Chain of PLK1 (P53350 whole entry, species assumed): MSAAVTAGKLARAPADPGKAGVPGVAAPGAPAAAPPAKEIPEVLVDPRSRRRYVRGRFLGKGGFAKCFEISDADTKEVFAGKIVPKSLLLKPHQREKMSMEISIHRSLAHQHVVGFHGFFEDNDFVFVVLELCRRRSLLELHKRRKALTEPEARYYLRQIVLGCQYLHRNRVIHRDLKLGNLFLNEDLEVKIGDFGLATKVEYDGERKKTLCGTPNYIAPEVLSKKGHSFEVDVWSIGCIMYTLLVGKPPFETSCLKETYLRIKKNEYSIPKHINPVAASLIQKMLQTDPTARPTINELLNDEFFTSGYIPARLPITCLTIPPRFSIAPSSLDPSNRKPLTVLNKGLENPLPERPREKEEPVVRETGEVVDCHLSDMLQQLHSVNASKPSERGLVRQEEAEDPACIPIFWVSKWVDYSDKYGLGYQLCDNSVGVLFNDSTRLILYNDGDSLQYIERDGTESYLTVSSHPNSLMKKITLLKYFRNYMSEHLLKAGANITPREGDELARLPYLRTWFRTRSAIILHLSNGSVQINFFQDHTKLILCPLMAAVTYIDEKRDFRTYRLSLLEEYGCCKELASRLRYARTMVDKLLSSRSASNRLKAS
Chain of MNK1 (Q9BUB5 whole entry, species assumed): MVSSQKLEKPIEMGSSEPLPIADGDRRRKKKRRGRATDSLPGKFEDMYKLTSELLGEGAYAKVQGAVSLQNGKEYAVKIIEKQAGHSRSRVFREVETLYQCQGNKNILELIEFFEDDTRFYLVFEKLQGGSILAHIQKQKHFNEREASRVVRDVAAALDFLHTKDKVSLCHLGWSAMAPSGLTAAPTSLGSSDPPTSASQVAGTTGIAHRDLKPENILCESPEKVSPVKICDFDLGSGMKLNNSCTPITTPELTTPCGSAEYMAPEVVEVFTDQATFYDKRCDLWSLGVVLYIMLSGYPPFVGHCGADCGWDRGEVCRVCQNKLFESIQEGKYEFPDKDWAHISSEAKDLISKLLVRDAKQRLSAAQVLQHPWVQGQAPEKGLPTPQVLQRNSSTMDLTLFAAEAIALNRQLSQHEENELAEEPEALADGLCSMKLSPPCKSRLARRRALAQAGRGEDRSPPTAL
Chain of PIM2 (Q9P1W9 whole entry, species assumed): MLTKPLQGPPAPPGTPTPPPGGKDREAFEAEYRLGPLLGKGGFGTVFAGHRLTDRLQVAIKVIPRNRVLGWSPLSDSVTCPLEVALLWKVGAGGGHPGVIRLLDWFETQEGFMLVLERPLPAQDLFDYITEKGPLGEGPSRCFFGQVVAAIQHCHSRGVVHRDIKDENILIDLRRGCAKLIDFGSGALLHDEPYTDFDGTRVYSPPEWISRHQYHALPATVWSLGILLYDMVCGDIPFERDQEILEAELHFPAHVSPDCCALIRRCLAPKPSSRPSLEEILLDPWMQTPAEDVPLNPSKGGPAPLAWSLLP
Chain of MARK3 (P27448 whole entry, species assumed): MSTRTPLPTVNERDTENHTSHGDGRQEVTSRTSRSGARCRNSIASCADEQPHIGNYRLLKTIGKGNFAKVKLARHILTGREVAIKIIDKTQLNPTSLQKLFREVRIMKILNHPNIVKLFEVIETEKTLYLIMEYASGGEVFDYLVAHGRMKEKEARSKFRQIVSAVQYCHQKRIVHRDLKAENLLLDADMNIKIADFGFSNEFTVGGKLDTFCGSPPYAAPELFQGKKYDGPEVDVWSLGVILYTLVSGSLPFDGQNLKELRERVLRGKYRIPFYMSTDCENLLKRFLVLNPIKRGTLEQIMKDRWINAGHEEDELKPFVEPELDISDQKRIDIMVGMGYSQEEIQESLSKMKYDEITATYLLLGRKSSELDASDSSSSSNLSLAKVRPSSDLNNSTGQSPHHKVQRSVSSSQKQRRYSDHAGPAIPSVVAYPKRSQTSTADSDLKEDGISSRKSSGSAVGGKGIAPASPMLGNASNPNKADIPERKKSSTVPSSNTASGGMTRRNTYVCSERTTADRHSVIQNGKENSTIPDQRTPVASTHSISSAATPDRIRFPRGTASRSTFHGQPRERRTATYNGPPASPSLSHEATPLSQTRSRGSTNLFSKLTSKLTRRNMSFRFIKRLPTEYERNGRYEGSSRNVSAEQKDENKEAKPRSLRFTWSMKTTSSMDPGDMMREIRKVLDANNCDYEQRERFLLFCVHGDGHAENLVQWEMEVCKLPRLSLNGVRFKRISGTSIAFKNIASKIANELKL

N=C(N)NCCC[C@@H](NC(=O)[C@@H](CCCNC(=N)N)NC(=O)[C@@H](CCCNC(=N)N)NC(=O)[C@@H](CCCNC(=N)N)NC(=O)[C@@H](CCCNC(=N)N)NC(=O)[C@@H](CCCNC(=N)N)NC(=O)CCCCCNCCNS(=O)(=O)c1cccc2cnccc12)C(N)=O [Compound 26, H9-Hex(D-Arg)6-NH2]
remaining activity at 1 µM (PIM2; inhibitor 1 μM, ATP 5 μM): < 10% | remaining activity at 1 µM (PLK1; inhibitor 1 μM, ATP 5 μM): 76% | remaining activity at 1 µM (smMLCK; inhibitor 1 μM, ATP 50 μM): 90% | remaining activity at 1 µM (MARK3; inhibitor 1 μM, ATP 5 μM): 53% | remaining activity at 1 µM (SGK; inhibitor 1 μM, ATP 20 μM): 1% | remaining activity at 1 µM (GSK3b; inhibitor 1 μM, ATP 5 μM): 94% | remaining activity at 1 µM (CHK1; inhibitor 1 μM, ATP 20 μM): 31% | remaining activity at 1 µM (PRK2; inhibitor 1 μM, ATP 5 μM): 2% | remaining activity at 1 µM (ERK8; inhibitor 1 μM, ATP 5 μM): 52% | remaining activity at 1 µM (NEK6; inhibitor 1 μM, ATP 50 μM): 100% | remaining activity at 1 µM (P70 S6K; inhibitor 1 μM, read-out: residual activity (%) P70 S6K): 2% | remaining activity at 1 µM (MNK1; inhibitor 1 μM, ATP 50 μM): 68% | remaining activity at 1 µM (CK2; inhibitor 1 μM, ATP 5 μM): 87%

N=C(N)NCCC[C@@H](NC(=O)[C@@H](CCCNC(=N)N)NC(=O)[C@@H](CCCNC(=N)N)NC(=O)[C@@H](CCCNC(=N)N)NC(=O)[C@@H](CCCNC(=N)N)NC(=O)[C@@H](CCCNC(=N)N)NC(=O)CCCCCNC(=O)[C@H]1O[C@@H](n2cnc3c(N)ncnc32)[C@H](O)[C@@H]1O)C(N)=O [Compound 5, AdcAhx(D-Arg)6-NH2]
remaining activity at 1 µM (PIM2): 38% | remaining activity at 1 µM (PLK1): 81% | remaining activity at 1 µM (smMLCK): 72% | remaining activity at 1 µM (MARK3): 40% | remaining activity at 1 µM (SGK): 16% | remaining activity at 1 µM (GSK3b): 56% | remaining activity at 1 µM (CHK1): 16% | remaining activity at 1 µM (PRK2): 2% | remaining activity at 1 µM (ERK8): 50% | remaining activity at 1 µM (NEK6): 94% | residual activity (%) P70 S6K (P70 S6K; inhibitor 1 μM): 7 (±2) % | remaining activity at 1 µM (P70 S6K; read-out: residual activity (%) P70 S6K, inhibitor 1 μM): 7 to 28% | remaining activity at 1 µM (MNK1): 102% | remaining activity at 1 µM (CK2): 104%
